# Source: the DeepSol protein solubility set
# Test: soluble on expression in E. coli; label from the status in PepcDB or PDB records
row,Sequence,soluble on expression in E. coli
1,MSKSTAEIRQAFLDFFHSKGHQVVASSSLVPHNDPTLLFTNAGMNQFKDVFLGLDKRNYSRATTSQRCVRAGGKHNDLENVGYTARHHTFFEMLGNFSFGDYFKHDAIQFAWELLTSEKWFALPKERLWVTVYESDDEAYEIWEKEVGIPRERIIRIGDNKGAPYASDNFWQMGDTGPCGPCTEIFYDHGDHIWGGPPGSPEEDGDRYIEIWNIVFMQFNRQADGTMEPLPKPSVDTGMGLERIAAVLQHVNSNYDIDLFRTLIQAVAKVTGATDLSNKSLRVIADHIRSCAFLIADGVMPSNENRGYVLRRIIRRAVRHGNMLGAKETFFYKLVGPLIDVMGSAGEDLKRQQAQVEQVLKTEEEQFARTLERGLALLDEELAKLSGDTLDGETAFRLYDTYGFPVDLTADVCRERNIKVDEAGFEAAMEEQRRRAREASGFGADYNAMIRVDSASEFKGYDHLELNGKVTALFVDGKAVDAINAGQEAVVVLDQTPFYAESGGQVGDKGELKGANFSFAVEDTQKYGQAIGHIGKLAAGSLKVGDAVQADIDEARRARIRLNHSATHLMHAALRQVLGTHVSQKGSLVNDKVLRFDFSHNEAMKPEEIRAVEDLVNAQIRRNLPIETNIMNLEAAKAKGAMALFGEKYDERVRVLSMGDFSTELCGGTHASRTGDIGLFRIISESGTAAGVRRIEAVTGEGAITTVHADSDRLSEVAHLLKGDSNNLADKVRSVLERTRQLEKELQQLKEQAAAQESANLSSKAIDVNGVKLLVSELSGVEPKMLRTMVDDLKNQLGSTIIVLATVAEGKVSLIAGVSKDVTDRVKAGELIGMVAQQVGGKGGGRPDMAQAGGTDAAALPAALASVKGWVSAKLQ,not soluble
2,MSKYAGIVLAGGMSSRFGEPKALAIWKETTFVEHIVKVMGNTLQDIVVISHTDIKERVEQFVQVPVIEDIPHYKGNGPLAGIVSGMEYIEADWYAIMPCDAPNVSHEWFTILLEQTNNEYDAVVPIINGRKQPLLAAYHNRVKEKIYALLQEEKRSMGQLLSQCNVKYVSGEDVQANADWFINVNTKEEYVQAQKDLSNE,soluble
3,MSKYSDAKELASLTLGKKTEYANQYDPSLLQPVPRSLNRNDLHLSATLPFQGCDIWTLYELSWLNQKGLPQVAIGEVSIPATSANLIESKSFKLYLNSYNQTRFASWDEVQTRLVHDLSACAGETVTVNVKSLNEYTAEPIVTMQGECIDDQDIEIANYEFDDALLQGAAQGEEVSEVLHSHLLKSNCLITNQPDWGSVEIAYHGAKMNREALLRYLVSFREHNEFHEQCVERIFTDIMRYCQPQSLTVYARYTRRGGLDINPFRSSHQSAPNHNQRMARQ,not soluble
4,MSLADPNESTFARIRRTKKMRIGAVGGGAPYYMKDLASGQWKGFYVDIAKALADDMEAELEITETTWGNSVLDLQSNKIDIFFGLNPTPKRALVVDFSVPVFNNAFGILCKKDFKPKTWAELNSPDVKIAVDQGSSHDQVVSRLIPKAQISRLKTADDATAALQTGRVDAQCLITMLSLTVLKKNPSLGQFVLPTPIFATTSNAGFRRETDKTWRDYVNTWIDFNKGLGFIRNAIITNMELVGVTEADIPPGVSLEGHHHHHH,soluble
5,MSLAGEVWLQTHHPDHPLLQTLINGGYHTFANTELQQRQAAGLPPFAHLALLRAEAKDTTSTQQFLATVRKHIPIDNAVECYGPMSAPMPRRAGYERYQLLLSSSQRNTLHRTLNVLIPAIHALPEARRVRWSLDVDPVDLYEGHHHHHH,not soluble
6,MSLAGTIAIKNGYVFDPLNEINGEKMDIFIRDGKVVKELSASEMKTSRVIDASGMTVMPGGVDSHSHVAGAKVNAGRSMRPEDHYKANLKKTPLTHSGSGYTVPSVYKQGYDYAAMGYTTVFEAAVPPLEARHTHEEMRATPLLDMGGYLVLGNNFFLMRYLRDGDMEKAAAYVAWMMKTHKTYGIKCVNPAGVENWAWGKNVSTLDETNIHFEITPREVIKGLTEVNETLGMPMPVHLHANNLGHPGCYAITKDSLKIPDGVKTKQNMAVEWAETKMDLSRDRSVYLTHLMFNSFAGTTWGDCESGVKDIADYINNKDHVVIDSGCTPFGEATVMTGDGPAIHDLYTLTGNKWSNTDVEMECGSGVLPFTYLKSNPVHSLQWAMGLECLLLIKDPWKTIMTTDSPNGGPFTKYPEVMTWIMSEAFRKQTFSECHKWANDRSELGGINRELSLYDLAILTRANPAKTIGMAHRKGSLGVGADGDVTVYNINPQQLDANNYEALLRTFRKAEYTVKGGEIVAVKGEIVSLPEKRTYYSEVHVENEREKEMLVDVKEWFRYYTLGFANYSTPEKYLANPTPIQVNSEGHHHHHH,not soluble
